Article doi:10.1101/2019.12.15.877159
Values belong to the substance of their own block, whether it stands above or below them.

Experiments:
Assay in all cases: non-reducing SDS-PAGE and western blot
[1] = target: transmembrane peptide of sDscamα (Mesobuthus martensii)
[2] = target: transmembrane peptide of sDscamβ2 (Mesobuthus martensii)
[3] = target: transmembrane peptide of sDscamβ3 (Mesobuthus martensii)
[4] = target: transmembrane peptide of sDscamβ4 (Mesobuthus martensii)
[5] = target: transmembrane peptide of sDscamβ5 (Mesobuthus martensii)
[6] = target: transmembrane peptide of sDscamβ6 (Mesobuthus martensii)

- stoichiometry N [1]: 2
Substance: transmembrane peptide of sDscamα (domain or fragment)

- stoichiometry N [2]: 2
Substance: transmembrane peptide of sDscamβ2 (domain or fragment)

- stoichiometry N [3]: 2
Substance: transmembrane peptide of sDscamβ3 (domain or fragment)

- percent of dimers [4]: < 10%
- stoichiometry N [4]: 2
Substance: transmembrane peptide of sDscamβ4 (domain or fragment)

- percent of dimers [5]: < 10%
- stoichiometry N [5]: 2
Substance: transmembrane peptide of sDscamβ5 (domain or fragment)

- stoichiometry N [6]: 2
Substance: transmembrane peptide of sDscamβ6 (domain or fragment)
